Test: Library plate screen, activity on 12-pNCA
Type: biochemical
Conditions: seven-crossover library, cell lysate
Description: These library plates were replicated and grown in 96 deep-well plates in 900 μL of LB media with 100 μg/ml ampicillin overnight at 30° C. and 250 rpm. 150 μL of this was then transferred to 850 μL of induction media (TB-media with final concentrations of 100 μg/ml ampicillin, 25 μg/ml thiamine, 0.5 mM δ-aminolevulinic acid and 0.6 mM IPTG). These were grown for 20-24 hours at 25° C. and 190 rpm, harvested by centrifugation at 5000×g for 8 minutes and frozen at −20° C. for at least 24 hours. Cells were resuspended using a pipetting robot (Multimek 96, Beckman) and lysed in 400 μL of Epps or Tris buffer (100 mM, pH 8.2) containing 0.8 mg/ml lysozyme and 2 units/mL DNaseI for 1 hour at 37° C. Plates were then spun for 8 minutes at 5000×g and 4° C. to pellet cell debris. 80 μL of lysate was transferred into 4 separate 96 well plates for each library plate. […] On one plate, high -throughput carbon monoxide spectroscopy was done in order to assess relative amounts of P450 (Otey, C. R. High-throughput carbon monoxide binding assay for cytochromes P450. In Directed Enzyme Evolution: Screening and Selection Methods, F. H. Arnold and G. Georgiou, eds. (Totowa, N.J.: Humana Press) pp. 137-139 (2003)) with 0.1 M sodium hydrosulfite being used in place of 0.4 M. The other three plates were used to assay activity on different substrates. […]

B1: Chimera F3791: chimera of the CYP102A1/A2/A3 seven-crossover library (protein)
chain: KETSPIPQPKTFGPLGNLPLIDKDKPTLSLIKLAEEQGPIFQIHTPAGTTIVVSGHELVKEVCDESRFDKNLSQALKFVRDFAGDGLATSWTHEKNWKKAHNILLPSFSQQAMKGYHAMMVDIAVQLIQKWARLNPNEAVDVPGDMTRLTLDTIGLCGFNYRFNSYYRDSQHPFITSMLRALKEAMNQSKRLGLQDKMMVKTKLQFQKDIEVMNSLVDKIIADRKASGEQSDDLLTHMLNGKDPETGEPLDDENIRYQIITFLIAGHETTSGLLSFATYFLLKHPDKLKKAYEEVDRVLTDAAPTYKQVLELTYIRMILNESLRLWPTAPAFSLYAKEDTVLGGEYPISKGQPVTVLIPKLHRDQNAWGPDAEDFRPERFEDPSSIPHHAYKPFGNGQRACIGMQFALQEATMVLGLVLKHFELINHTGYELKIKEALTIKPDDFKITVKPRKTAAINVQRKEQA
modifications: Chimeric Cytochrome P450 heme group polypeptide sequence from CYP102A1 (Bacillus megaterium); CYP102A2 (Bacillus subtilis) and CYP102A3 (Bacillus subtilis)
notes: chimera of the CYP102A1/A2/A3 seven-crossover library
activity for 12-pNCA compared to parent P450s: superior activity

Source: US8603949B2, “Libraries of optimized cytochrome P450 enzymes and the optimized P450 enzymes” (California Institute of Technology, priority 2003, dated 2013)
